The values that follow come from publication PMC11098746 (2024).

B1: ADP378 (protein)
chain: PAPGRPPTHNAHNWRLGQAPANWYNDTYPLSPPQRTPAGIRYRIAVIADLDTESRAQEENTWFSYLKKGYLTLSDSGDKVAVEWDKDHGVLESHLAEKGRGMELSDLIVFNGKLYSVDDRTGVVYQIEGSKAVPWVILSDGDGTVEKGFKAEWLAVKDERLYVGGLGKEWTTTTGDVVNENPEWVKVVGYKGSVDHENWVSNYNALRAAAGIQPPGYLIHESACWSDTLQRWFFLPRRASQERYSEKDDERKGANLLLSASPDFGDIAVSHVGAVVPTHGFSSFKFIPNTDDQIIVALKSEEDSGRVASYIMAFTLDGRFLLPETKIGSVKYEGIEFI
modifications: bait human Fc-tagged dimer
B2: ADP362 (protein)
chain: MARAALWLWLCALALSLQPALPQIVATNLPPEDQDGSGDDSDNFSGSGAGALQDITLSQQTPSTWKDTQLLTAIPTSPEPTGLEATAASTSTLPAGEGPKEGEAVVLPEVEPGLTAREQEATPRPRETTQLPTTHLASTTTATTAQEPATSHPHRDMQPGHHETSTPAGPSQADLHTPHTEDGGPSATERAAEDGASSQLPAAEGSGEQDFTFETSGENTAVVAVEPDRRNQSPVDQGATGASQGLLDRKEVLG
modifications: bait human Fc-tagged dimer
B3: ADP152 (protein)
chain: MAPSSPRPALPALLVLLGALFPGPGNAQTSVSPSKVILPRGGSVLVTCSTSCDQPKLLGIETPLPKKELLLPGNNRKVYELSNVQEDSQPMCYSNCPDGQSTAKTFLTVYWTPERVELAPLPSWQPVGKNLTLRCQVEGGAPRANLTVVLLRGEKELKREPAVGEPAEVTTTVLVRRDHHGANFSCRTELDLRPQGLELFENTSAPYQLQTFVLPATPPQLVSPRVLEVDTQGTVVCSLDGLFPVSEAQVHLALGDQRLNPTVTYGNDSFSAKASVSVTAEDEGTQRLTCAVILGNQSQETLQTVTIYSFPAPNVILTKPEVSEGTEVTVKCEAHPRAKVTLNGVPAQPLGPRAQLLLKATPEDNGRSFSCSATLEVAGQLIHKNQTRELRVLYGPRLDERDCPGNWTWPENSQQTPMCQAWGNPLPELKCLKDGTFPLPIGESVTVTRDLEGTYLCRARSTQGEVTRKVTVNVLSP
modifications: bait human Fc-tagged dimer
B4: ADP148 (protein)
chain: MASWIGAVILPLLGLLLSLPAGADVKARSCGEVRQAYGAKGFSLADIPYQEIAGEHLRICPQEYTCCTTEMEDKLSQQSKLEFENLVEETSHFVRTTFVSRHKKFDEFFRELLENAEKSLNDMFVRTYGMLYMQNSEVFQDLFTELKRYYTGGNVNLEEMLNDFWARLLERMFQLINPQYHFSEDYLECVSKYTDQLKPFGDVPRKLKIQVTRAFIAARTFVQGLTVGREVANRVSKVSPTPGCIRALMKMLYCPYCRGLPTVRPCNNYCLNVMKGCLANQADLDTEWNLFIDAMLLVAERLEGPFNIESVMDPIDVKISEAIMNMQENSMQVSAKVFQGCGQPKPAPALRSARSAPENFNTRFRPYNPEERPTTAAGTSLDRLVTDIKEKLKLSKKVWSALPYTICKDESVTAGTSNEEECWNGHSKARYLPEIMNDGLTNQINNPEVDVDITRPDTFIRQQIMALRVMTNKLKNAYNGNDVNFQDTSDESSGSGSGSGCMDDVCPTEFEFVTTEAPAVDPDRREVDSS
modifications: bait human Fc-tagged dimer
B5: ADP382 (protein)
chain: TYDDGICKSSDCIKSAARLIQNMDATTEPCTDFFKYACGGWLKRNVIPETSSRYGNFDILRDELEVVLKDVLQEPKTEDIVAVQKAKALYRSCINESAIDSRGGEPLLKLLPDIYGWPVATENWEQKYGASWTAEKAIAQLNSKYGKKVLINLFVGTDDKNSVNHVIHIDQPRLGLPSRDYYECTGIYKEACTAYVDFMISVARLIRQEERLPIDENQLALEMNKVMELEKEIANATAKPEDRNDPMLLYNKMTLAQIQNNFSLEINGKPFSWLNFTNEIMSTVNISITNEEDVVVYAPEYLTKLKPILTKYSARDLQNLMSWRFIMDLVSSLSRTYKESRNAFRKALYGTTSETATWRRCANYVNGNMENAVGRLYVEAAFAGESKHVVEDLIAQIREVFIQTLDDLTWMDAETKKRAEEKALAIKERIGYPDDIVSNDNKLNNEYLELNYKEDEYFENIIQNLKFSQSKQLKKLREKVDKDEWISGAAVVNAFYSSGRNQIVFPAGILQPPFFSAQQSNSLNYGGIGMVIGHEITHGFDDNGRNFNKDGDLVDWWTQQSASNFKEQSQCMVYQYGNFSWDLAGGQHLNGINTLGENIADNGGLGQAYRAYQNYIKKNGEEKLLPGLDLNHKQLFFLNFAQVWCGTYRPEYAVNSIKTDVHSPGNFRIIGTLQNSAEFSEAFHCRKNSYMNPEKKCRVW
modifications: bait human Fc-tagged dimer
B6: ADP313 (protein)
chain: MAHLHHSCLCFRSWLPAMLAVLLSLAPSASSDISASRPNILLLMADDLGIGDIGCYGNNTMRTPNIDRLAEDGVKLTQHISAASLCTPSRAAFLTGRYPVRSGMVSSIGYRVLQWTGASGGLPTNETTFAKILKEKGYATGLIGKWHLGLNCESASDHCHHPLHHGFDHFYGMPFSLMGDCARWELSEKRVNLEQKLNFLFQVLALVALTLVAGKLTHLIPVSWMPVIWSALSAVLLLASSYFVGALIVHADCFLMRNHTITEQPMCFQRTTPLILQEVASFLKRNKHGPFLLFVSFLHVHIPLITMENFLGKSLHGLYGDNVEEMDWMVGRILDTLDVEGLSNSTLIYFTSDHGGSLENQLGNTQYGGWNGIYKGGKGMGGWEGGIRVPGIFRWPGVLPAGRVIGEPTSLMDVFPTVVRLAGGEVPQDRVIDGQDLLPLLLGTAQHSDHEFLMHYCERFLHAARWHQRDRGTMWKVHFVTPVFQPEGAGACYGRKVCPCFGEKVVHHDPPLLFDLSRDPSETHILTPASEPVFYQVMERVQQAVWEHQRTLSPVPLQLDRLGNIWRPWLQPCCGPFPLCWCLREDDPQ
modifications: bait human Fc-tagged dimer
B7: 58 (protein)
chain: IQLHSVNYAPLNYIEIGDTLSNKVGELWHSHLNSFIDIVSTKVVNKLEDDLSNGNNLEKFMILLEDDADIFDASAYEGKNLALIQTEFIRKLKDKFKNSKFGQKLKKLGSKAKEKLLSLYQKHKGKLRHFFSILLKSLVIPIAVQFIRKNLNKWKQRTLEATQKLDEQSKNIAQPIINRLYNSFEDKIEEYSQENKINVEDELNALGQLDKDKQDIQKLEEQEKALLQ
modifications: bait human Fc-tagged dimer
B8: 23 (protein)
chain: ENVDTFKCNYAKKKKNGHHIKRHITNDEEKKKEYSFLMLGKENEEENKENKENNQNVNKDNNDNNNNEKKNEEQNHNNEKKQEEVINNNNNNVENKKEEENHNNDKKTDEQNHVNEKKQEGENNKHKKDDTIPPEKKINKENLLEYGTHDKEGHFIPSYKTLTDEILSTNNAMEKASSFLKIACSHVMKLIEFIPESKLSSQYIKVDNKNIYLKDIAVECQNIYFNLEKFSMTLIVFNSKINKFIYSQEK
modifications: bait human Fc-tagged dimer
B9: 42 (protein)
chain: QLRFASLGDWGKDTKGQILNAKYFKQFIKNERVTFIVSPGSNFIDGVKGLNDPAWKNLYEDVYSEEKGDMYMPFFTVLGTRDWTGNYNAQLLKGQGIYIEKNGETSIEKDADATNYPKWIMPNYWYHYFTHFTVSSGPSIVKTGHKDLAAAFIFIDTWVLSSNFPYKKIHEKAWNDLKSQLSVAKKIADFIIVVGDQPIYSSGYSRGSSYLAYYLLPLLKDAEVDLYISGHDNNMEVIEDNDMAHITCGSGSMSQGKSGMKNSKSLFFSSDIGFCVHELSNNGIVTKFVSSKKGEVIYTHKLNIKKKKTLDKVNALQHFAALPNVELTDVPSSGP
modifications: bait human Fc-tagged dimer

In one assay the target is Circumsporozoite protein (CSP) (Plasmodium falciparum (isolate 3D7), UniProt Q7K740). Put plainly: AVEXIS screen signal:noise (double-corrected).
With B1, the binding score stood at 1.3.

As to B2, the binding score stood at 0.594.

Turning to B3, the binding score came out at 1.23.

In turn, B4 registered a binding score of 0.913.

Consider B5, for which the binding score worked out at 0.577.

B6: the binding score was found to be 0.959.

The target in the next assay is FGFR4 ectodomain (Homo sapiens, UniProt P22455). Put plainly: AVEXIS normalised luminescence.
Regarding B7, the binding score stood at 0.979.

For B8, the binding score came to 0.913.

In the case of B9, the binding score is 1.51.
